Results: patent US20150376275A1

Legend:
[1] = target: KIR (KIR2D receptors; KIR2DL1 and 2/3) on the patients' NK cells; assay: receptor occupancy on patients' NK cells by flow cytometry after a single i.v. dose of 0.003 mg/kg (AML dose-escalation trial)
[2] = target: KIR (KIR2D receptors; KIR2DL1 and 2/3) on the patients' NK cells; assay: receptor occupancy on patients' NK cells by flow cytometry after a single i.v. dose of 0.0003 mg/kg (AML dose-escalation trial)

## fully human anti-KIR2DL1, 2 and 3 monoclonal antibody 1-7F9
[1]
  KIR occupancy: 90%
[2]
  KIR occupancy: 50%
